These results are taken from patent US7201905B2, “Bi-functional cancer treatment agents” (Greenville Hospital System, priority 2001, dated 2007).

One data set concerns L-1210 tumor cells. As to conditions: inhibiting cell growth and differentiation, read-out: IC50, cytotoxic effects against L-1210 tumor cells; cited from earlier work.
The subject of data set [1] is T-47D human breast cancer cells. Kind of data set: T-47D human breast cancer cell proliferation assay (FIG. 4). Type of data set: cell-based. An excerpt:
The x-axis represents the hPRL-G129R concentration either in the absence (open bars) or presence of 4-OH-Tamoxifen. Each data point represents a mean of at least three independent experiments with triplicate wells.

Data set [2] has the same test system. Put plainly: T-47D co-culture method with L cells (FIG. 3). Type of data set: cell-based. The following applies: co-cultured with L-PRL or L-hPRL-G129R cells, dose-response. An excerpt: The x-axis represents the co-cultured L cell (control, L-PRL or L-hPRL-G129R cell numbers. Each data point represents a mean of at least three independent experiments with triplicate wells.

The subject of data set [3] is STAT5 phosphorylation in T-47D human breast cancer cells. Put plainly: STAT 5 phosphorylation/immunoprecipitation assay. Format: cell-based. The following applies: T-47D cells, 30 min incubation, anti-phosphotyrosine blot. How it is done: T-47D cells are grown in RPMI-1640 medium containing 10% Charcoal Stripped Fetal Bovine Serum (CSFBS; growth medium). For each experiment, cells are passed into 6 well culture plates in growth medium till reach 90% confluence. On the day of the experiment, cells are depleted in serum free media for one hour and incubated in hPRL, hPRL-G129R or combination of two for 30 min. After treatment, T47-D cells are washed once with ice cold PBS and collected by gentle scraping in 1 ml ice cold lysis buffer [20 mM Tris-Cl (pH 7.4), 100 mM NaCl, 2 mM EDTA, 1% NP-40, 1 mM phenylmethylsulfonyl fluoride, 10 ug/ml aprotinin, 10 ug/ml leupeptin]. The lysis mixture is then passed through a 22 gauge needle several times avoiding air bubbles and spin at maximum speed for 20 minutes. The supernatant is then transferred to a new microcentrifuge tube. Five μg of STAT5 monoclonal antibody is then added to 100 microliters (200–500 micrograms total protein) of cell lysate along with 400 microliters of ddH20 and 500 microliters of 2×IP buffer [1% Triton X-100, 150 mM NaCl, 10 mM Tris pH 7.4, 1 mM EDTA, 1 mM EGTA, 0.2 mM sodium vanadate, 0.2 mM PMSF, 0.5% NP-40] to each reaction. After overnight incubation at 4° C. and gentle rotation, 50 microliters of prewashed (1×IP buffer) protein A agarose beads are added to each IP reaction and continue the Incubation for another 2 hours at 4C. […]

Turning to `COc1ccc2c(c[n+](C)c3c4cc5c(cc4ccc23)OCO5)c1OC` [chelerythrine, 1,2-dimethoxy-12-methyl[1,3]benzodioxolo[5,6-c]phenanthridinium], in the data set with L-1210 tumor cells, the IC50 was 53 nM.

B1: hPRL-G129R: human prolactin with substitution of Gly to Arg at position 129 (SEQ ID NO: 34), hPRLR antagonist (protein)
chain: LPICPGGAARCQVTLRDLFDRAVVLSHYIHNLSSEMFSEFDKRYTHGRGFITKAINSCHTSSLATPEDKEQAQQMNQKDFLSLIVSILRSWNEPLYHLVTEVRGMQEAPEAILSKAVEIEEQTKRLLEGMELIVSQVHPETKENEIYPVWSGLPSLQMADEESRLSAYYNLLHCLRRDSHKIDNYLKLLKCRIIHNNNC
Consider B1, for which, in data set [1] (hPRL-G129R alone, dose-response), the “effect on T-47D cell proliferation” value was “dose-response inhibitory effects”. Further, in data set [1] (in presence of 4-OH-Tamoxifen), the “effect on T-47D cell proliferation in combination” value is reported as “additive effects with 4-OH-Tamoxifen”. Also, the “effect on T-47D cells, co-culture method” value in data set [2] is listed as “dose-response inhibitory effects”. For the same molecule, the “block of signal transduction (STAT5 phosphorylation) induced by hPRL” value in data set [3] is “able to block the signal transduction induced by hPRL”.

B2: hPRL: human prolactin (protein)
chain: B1 chain
Regarding B2, the “effect on T-47D cells, co-culture method” value in data set [2] is listed as “stimulatory effects”.
